Measurements as given in US20250213666A1 (UNIVERSITY OF CINCINNATI, published 2025).

Biological target: T1, Intimin-spike fusion protein (Intimin-Spike-RBD) surface displayed on E. coli Nissle 1917 (SARS-CoV-2)
T1 construct: also called pInt-spike; pInt-Spike-RBD
Assay: cell aggregation assay (OD600) of nanobody-bearing EcN with spike-bearing EcN

B1: Lpp-OmpA-VHH72 nanobody (pLpp-OmpA-VHH72), surface displayed on E. coli Nissle 1917 or on its OMVs (VHH)
chain: CSSNAKIDQGINNNGPTHENQLGAGAFGGYQVNPYVGFEMGYDWLGRMPYKGSVENGAYKAQGVQLTAKLGYPITDDLDIYTRLGGMVWRADTKSNVYGKNHDTGVSPVFAGGVEYAITPEIATRKLENLYFQGTRQVQLQESGGGLVQAGGSLRLSCAASGRTFSEYAMGWFRQAPGKEREFVATISWSGGSTYYTDSVKGRFTISRDNAKNTVYLQMNSLKPDDTAVYYCAAAGLGTVVSEWDYDYDYWGQGTQVTVSSGSGSENLYFQGDYKDDDDKWSHPQFEKSR
notes: also called pLpp-OmpA-VHH72 Nb; Lpp-OmpA-VHH72 Nb
Question: Does B1 bind?
Answer: Result: no binding
